Measured values as given in patent US20150344570A1 (published 2015).

T1: FcγRIIb extracellular domain with C-terminal His tag (human, UniProt P31994 43-217)
T1 construct: extracellular domain; expressed in FreeStyle293 cells; analyte in Biacore; also called FcgRIIb; 2b
T1 sequence (looked up): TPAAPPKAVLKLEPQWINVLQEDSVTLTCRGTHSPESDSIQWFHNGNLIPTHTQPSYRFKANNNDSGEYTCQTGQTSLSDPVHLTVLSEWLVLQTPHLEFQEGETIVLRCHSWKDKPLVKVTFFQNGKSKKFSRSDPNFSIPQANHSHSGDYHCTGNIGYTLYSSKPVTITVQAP


Tests used:
[1] = molecular target: T2, FcγRIa extracellular domain with C-terminal His tag (human, UniProt P12314 16-292); assay: SPR (Biacore), captured antibody, FcγR as analyte; relative binding
T2 construct: extracellular domain; expressed in FreeStyle293 cells; analyte in Biacore; also called FcgRI; 1a

[2] = molecular target: T1, FcγRIIb extracellular domain with …; assay: as above
[3] = molecular target: T2, FcγRIa extracellular domain with …; assay: SPR (Biacore); He/Con_1a divided by He/Con_2b (FcγRIIb as reference)
[4] = molecular target: T3, FcγRIa (human, UniProt P12314 16-292); assay: SPR (Biacore), antibody captured on antigen-peptide chip, FcγRIa as analyte; binding activity relative to control GpH7-A5/GpH7-B3/GpL16-k0 (HeCon Ab) x100
T3 construct: extracellular domain; Soluble extracellular domain with C-terminal His tag, expressed in FreeStyle293 cells; analyte in Biacore; also called FcgRI; CD64; not shown: His tag attached to the C terminus
Method: Analysis of interaction between objective antibody and the FcγR was carried out using Biacore T100 (GE Healthcare). HBS-EP+ (GE Healthcare) was used as the running buffer, and the measurement temperature was set to 25° C. Chips produced by immobilizing the antigen peptide by the amine coupling method to a Series S Sencor Chip CM5 (GE Healthcare), or alternatively, chips produced by allowing preliminarily biotinylated antigen peptides to interact with and immobilize onto a Series S Sensor Chip SA (certified) (GE Healthcare) were used. Antibodies of interest were captured onto an antigen peptide-immobilized chip, and allowed to interact to each FcγR diluted with running buffer. To regenerate and repeatedly use the chip, the antibodies captured on the chip were washed off by reacting 10 mM glycine-HCl, pH 1.5.

T2 sequence (P12314 16-292): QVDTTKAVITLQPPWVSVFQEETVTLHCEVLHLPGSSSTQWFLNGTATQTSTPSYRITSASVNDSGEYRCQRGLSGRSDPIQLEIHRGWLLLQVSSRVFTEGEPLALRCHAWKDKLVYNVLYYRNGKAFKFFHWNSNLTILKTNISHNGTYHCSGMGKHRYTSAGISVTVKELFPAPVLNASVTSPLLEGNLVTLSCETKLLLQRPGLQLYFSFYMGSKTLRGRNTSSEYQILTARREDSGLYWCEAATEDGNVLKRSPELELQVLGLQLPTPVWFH
T3 sequence (P12314 16-292): as above

Row | He/Con_1a [1] | He/Con_2b [2] | He_1a/2b (Ia/IIb) [3] | He/Con_1a [4] | Binder
1 | 79.9 % of HeCon Ab (GpH7-A5/GpH7-B3/GpL16-k0 = 100) | 16.1 % of HeCon Ab (GpH7-A5/GpH7-B3/GpL16-k0 = 100) | 4.95 ratio | – | GpH7-A5/GpH7-B3 variant D265_01G/GpL16-k0 (antibody, human IgG1, kappa, He Ab; IgG1, mutation in one H chain) heavy 1: not shown heavy 2: not shown light: DIVMTQSPLSLPVTPGEPASISCQASESLVHSNRNTYLHWYLQKPGQSPQLLIYKVSNRFSGVPDRFSGSGSGTDFTLKISRVEAEDVGVYYCSQNTHVPPTFGQGTKVEIERTVAAPSVFIFPPSDEQLKSGTASVVCLLNNFYPREAKVQWKVDNALQSGNSQESVTEQDSKDSTYSLSSTLTLSKADYEKHKVYACEVTHQGLSSPVTKSFNRGEC
2 | – | – | – | 112 % of control (=100) | GpH7-A5/GpH7-B3 variant Y300_20W/GpL16-k0 (heterodimerized antibody, He Ab) (antibody, human IgG1, kappa, Anti-glypican-3 IgG1; alteration only in the GpH7-B3 (K439E) chain; other H chain is GpH7-A5 (D356K/H435R)) heavy 1: not shown heavy 2: not shown light: DIVMTQSPLSLPVTPGEPASISCQASESLVHSNRNTYLHWYLQKPGQSPQLLIYKVSNRFSGVPDRFSGSGSGTDFTLKISRVEAEDVGVYYCSQNTHVPPTFGQGTKVEIERTVAAPSVFIFPPSDEQLKSGTASVVCLLNNFYPREAKVQWKVDNALQSGNSQESVTEQDSKDSTYSLSSTLTLSKADYEKHKVYACEVTHQGLSSPVTKSFNRGEC
3 | 84.5 % of HeCon Ab (GpH7-A5/GpH7-B3/GpL16-k0 = 100) | 19.9 % of HeCon Ab (GpH7-A5/GpH7-B3/GpL16-k0 = 100) | 4.25 ratio | – | GpH7-A5/GpH7-B3 variant D265_02A/GpL16-k0 (antibody, human IgG1, kappa, He Ab; IgG1, mutation in one H chain) heavy 1: not shown heavy 2: not shown light: DIVMTQSPLSLPVTPGEPASISCQASESLVHSNRNTYLHWYLQKPGQSPQLLIYKVSNRFSGVPDRFSGSGSGTDFTLKISRVEAEDVGVYYCSQNTHVPPTFGQGTKVEIERTVAAPSVFIFPPSDEQLKSGTASVVCLLNNFYPREAKVQWKVDNALQSGNSQESVTEQDSKDSTYSLSSTLTLSKADYEKHKVYACEVTHQGLSSPVTKSFNRGEC
4 | 56.8 % of HeCon Ab (GpH7-A5/GpH7-B3/GpL16-k0 = 100) | 4.6 % of HeCon Ab (GpH7-A5/GpH7-B3/GpL16-k0 = 100) | 12.4 ratio | – | GpH7-A5/GpH7-B3 variant D265_08L/GpL16-k0 (antibody, human IgG1, kappa, He Ab; IgG1, mutation in one H chain) heavy 1: not shown heavy 2: not shown light: DIVMTQSPLSLPVTPGEPASISCQASESLVHSNRNTYLHWYLQKPGQSPQLLIYKVSNRFSGVPDRFSGSGSGTDFTLKISRVEAEDVGVYYCSQNTHVPPTFGQGTKVEIERTVAAPSVFIFPPSDEQLKSGTASVVCLLNNFYPREAKVQWKVDNALQSGNSQESVTEQDSKDSTYSLSSTLTLSKADYEKHKVYACEVTHQGLSSPVTKSFNRGEC
5 | 75.7 % of HeCon Ab (GpH7-A5/GpH7-B3/GpL16-k0 = 100) | 10 % of HeCon Ab (GpH7-A5/GpH7-B3/GpL16-k0 = 100) | 7.57 ratio | – | GpH7-A5/GpH7-B3 variant D265_06M/GpL16-k0 (antibody, human IgG1, kappa, He Ab; IgG1, mutation in one H chain) heavy 1: not shown heavy 2: not shown light: DIVMTQSPLSLPVTPGEPASISCQASESLVHSNRNTYLHWYLQKPGQSPQLLIYKVSNRFSGVPDRFSGSGSGTDFTLKISRVEAEDVGVYYCSQNTHVPPTFGQGTKVEIERTVAAPSVFIFPPSDEQLKSGTASVVCLLNNFYPREAKVQWKVDNALQSGNSQESVTEQDSKDSTYSLSSTLTLSKADYEKHKVYACEVTHQGLSSPVTKSFNRGEC
6 | 54.4 % of HeCon Ab (GpH7-A5/GpH7-B3/GpL16-k0 = 100) | 1.3 % of HeCon Ab (GpH7-A5/GpH7-B3/GpL16-k0 = 100) | 41.2 ratio | – | GpH7-A5/GpH7-B3 variant D265_07I/GpL16-k0 (antibody, human IgG1, kappa, He Ab; IgG1, mutation in one H chain) heavy 1: not shown heavy 2: not shown light: DIVMTQSPLSLPVTPGEPASISCQASESLVHSNRNTYLHWYLQKPGQSPQLLIYKVSNRFSGVPDRFSGSGSGTDFTLKISRVEAEDVGVYYCSQNTHVPPTFGQGTKVEIERTVAAPSVFIFPPSDEQLKSGTASVVCLLNNFYPREAKVQWKVDNALQSGNSQESVTEQDSKDSTYSLSSTLTLSKADYEKHKVYACEVTHQGLSSPVTKSFNRGEC
7 | 55.7 % of HeCon Ab (GpH7-A5/GpH7-B3/GpL16-k0 = 100) | 3.2 % of HeCon Ab (GpH7-A5/GpH7-B3/GpL16-k0 = 100) | 17.3 ratio | – | GpH7-A5/GpH7-B3 variant D265_03V/GpL16-k0 (antibody, human IgG1, kappa, He Ab; IgG1, mutation in one H chain) heavy 1: not shown heavy 2: not shown light: DIVMTQSPLSLPVTPGEPASISCQASESLVHSNRNTYLHWYLQKPGQSPQLLIYKVSNRFSGVPDRFSGSGSGTDFTLKISRVEAEDVGVYYCSQNTHVPPTFGQGTKVEIERTVAAPSVFIFPPSDEQLKSGTASVVCLLNNFYPREAKVQWKVDNALQSGNSQESVTEQDSKDSTYSLSSTLTLSKADYEKHKVYACEVTHQGLSSPVTKSFNRGEC
8 | 53 % of HeCon Ab (GpH7-A5/GpH7-B3/GpL16-k0 = 100) | 3.2 % of HeCon Ab (GpH7-A5/GpH7-B3/GpL16-k0 = 100) | 16.8 ratio | – | GpH7-A5/GpH7-B3 variant D265_04F/GpL16-k0 (antibody, human IgG1, kappa, He Ab; IgG1, mutation in one H chain) heavy 1: not shown heavy 2: not shown light: DIVMTQSPLSLPVTPGEPASISCQASESLVHSNRNTYLHWYLQKPGQSPQLLIYKVSNRFSGVPDRFSGSGSGTDFTLKISRVEAEDVGVYYCSQNTHVPPTFGQGTKVEIERTVAAPSVFIFPPSDEQLKSGTASVVCLLNNFYPREAKVQWKVDNALQSGNSQESVTEQDSKDSTYSLSSTLTLSKADYEKHKVYACEVTHQGLSSPVTKSFNRGEC
